pKd: −log10 of the molar value.
Molecular target: ACE2-Fc (soluble human ACE2 fused to human IgG Fc) (human) (UniProt Q9BYF1)
Assay: BLI

Chain of ACE2-Fc (soluble human ACE2 fused to human IgG Fc) (human) (Q9BYF1 18-738): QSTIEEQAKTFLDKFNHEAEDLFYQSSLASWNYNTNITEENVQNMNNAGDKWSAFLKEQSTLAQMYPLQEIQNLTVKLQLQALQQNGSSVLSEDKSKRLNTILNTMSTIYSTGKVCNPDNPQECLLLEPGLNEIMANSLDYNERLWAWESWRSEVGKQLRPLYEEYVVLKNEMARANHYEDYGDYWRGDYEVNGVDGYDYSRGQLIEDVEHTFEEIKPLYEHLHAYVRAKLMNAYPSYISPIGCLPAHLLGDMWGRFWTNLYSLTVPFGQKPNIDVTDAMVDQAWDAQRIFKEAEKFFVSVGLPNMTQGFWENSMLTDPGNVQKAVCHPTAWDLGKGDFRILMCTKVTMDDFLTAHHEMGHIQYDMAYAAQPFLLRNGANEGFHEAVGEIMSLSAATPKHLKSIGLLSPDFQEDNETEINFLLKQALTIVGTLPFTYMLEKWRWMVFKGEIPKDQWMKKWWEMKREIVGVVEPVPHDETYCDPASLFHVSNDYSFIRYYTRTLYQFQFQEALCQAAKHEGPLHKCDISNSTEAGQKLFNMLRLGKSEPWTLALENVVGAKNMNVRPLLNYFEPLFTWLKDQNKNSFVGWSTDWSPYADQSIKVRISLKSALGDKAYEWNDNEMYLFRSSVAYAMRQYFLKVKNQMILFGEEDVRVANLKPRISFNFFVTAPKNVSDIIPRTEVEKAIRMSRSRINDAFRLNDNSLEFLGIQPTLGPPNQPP

SARS-CoV-1 S-Trimer (wild-type SARS-CoV S ectodomain fused to Trimer-Tag) (from UniProt P59594 14-1193) (domain or fragment)
pKd: 8.92

Reference: publication doi:10.1101/2020.09.21.306357
